Experiments:
Type in all cases: protein assay
[1] = substrate: O=[N+]([O-])c1ccc(O[C@H]2O[C@H](CO)[C@@H](O)[C@H](O)[C@@H]2O)cc1; assay: (§1) Activity of Bacteroides thetaiotaomicron GH92 alpha-mannosidase 3990 D644A mutant assessed as as mannose release after 16 hrs by HPLC relative to wild type enzyme
[2] = substrate: OC[C@H]1O[C@H](O[C@H]2[C@@H](O)[C@H](O)[C@@H](CO)O[C@@H]2O)[C@@H](O)[C@@H](O)[C@@H]1O; assay: as §1
[3] = substrate: O=[N+]([O-])c1ccc(O[C@H]2O[C@H](CO)[C@@H](O)[C@H](O)[C@@H]2O)c([N+](=O)[O-])c1; assay: (§2) Ratio of Kcat to Km for Bacteroides thetaiotaomicron GH92 alpha-mannosidase 3990 D644A mutant assessed as as mannose release after 16 hrs by HPLC relative to wild type enzyme
[4] = substrate: O=[N+]([O-])c1ccc(O[C@H]2O[C@H](CO)[C@@H](O)[C@H](O)[C@@H]2O)cc1; assay: as §2
[5] = substrate: OC[C@H]1O[C@H](O[C@H]2[C@@H](O)[C@H](O)[C@@H](CO)O[C@@H]2O)[C@@H](O)[C@@H](O)[C@@H]1O; assay: as §2
[6] = substrate: O=[N+]([O-])c1ccc(O[C@H]2O[C@H](CO)[C@@H](O)[C@H](O)[C@@H]2O)cc1; assay: (§3) Activity of Bacteroides thetaiotaomicron GH92 alpha-mannosidase 3990 D644N mutant assessed as as mannose release after 16 hrs by HPLC relative to wild type enzyme
[7] = substrate: OC[C@H]1O[C@H](O[C@H]2[C@@H](O)[C@H](O)[C@@H](CO)O[C@@H]2O)[C@@H](O)[C@@H](O)[C@@H]1O; assay: as §3
[8] = substrate: O=[N+]([O-])c1ccc(O[C@H]2O[C@H](CO)[C@@H](O)[C@H](O)[C@@H]2O)c([N+](=O)[O-])c1; assay: (§4) Ratio of Kcat to Km for Bacteroides thetaiotaomicron GH92 alpha-mannosidase 3990 D644N mutant assessed as as mannose release after 16 hrs by HPLC relative to wild type enzyme
[9] = substrate: O=[N+]([O-])c1ccc(O[C@H]2O[C@H](CO)[C@@H](O)[C@H](O)[C@@H]2O)cc1; assay: as §4
[10] = substrate: OC[C@H]1O[C@H](O[C@H]2[C@@H](O)[C@H](O)[C@@H](CO)O[C@@H]2O)[C@@H](O)[C@@H](O)[C@@H]1O; assay: as §4
[11] = substrate: O=[N+]([O-])c1ccc(O[C@H]2O[C@H](CO)[C@@H](O)[C@H](O)[C@@H]2O)cc1; assay: (§5) Activity of Bacteroides thetaiotaomicron GH92 alpha-mannosidase 3990 E643A mutant assessed as as mannose release after 16 hrs by HPLC relative to wild type enzyme
[12] = substrate: OC[C@H]1O[C@H](O[C@H]2[C@@H](O)[C@H](O)[C@@H](CO)O[C@@H]2O)[C@@H](O)[C@@H](O)[C@@H]1O; assay: as §5
[13] = substrate: O=[N+]([O-])c1ccc(O[C@H]2O[C@H](CO)[C@@H](O)[C@H](O)[C@@H]2O)c([N+](=O)[O-])c1; assay: (§6) Ratio of Kcat to Km for Bacteroides thetaiotaomicron GH92 alpha-mannosidase 3990 E643A mutant assessed as as mannose release after 16 hrs by HPLC relative to wild type enzyme
[14] = substrate: O=[N+]([O-])c1ccc(O[C@H]2O[C@H](CO)[C@@H](O)[C@H](O)[C@@H]2O)cc1; assay: as §6
[15] = substrate: OC[C@H]1O[C@H](O[C@H]2[C@@H](O)[C@H](O)[C@@H](CO)O[C@@H]2O)[C@@H](O)[C@@H](O)[C@@H]1O; assay: as §6

B1: Alpha-1,2-mannosidase (BT_3990) (Bacteroides thetaiotaomicron), Q8A0N1 D644A (protein)
chain: MKRLLLIACILNCTLLSQAKDWTQYVNPLMGSQSTFELSTGNTYPAIARPWGMNFWTPQTGKMGDGWQYTYTANKIRGFKQTHQPSPWINDYGQFSIMPIVGQPVFDEEKRASWFAHKGEVATPYYYKVYLAEHDIVTEMTPTERAVLFRFTFPENDHSYVVVDAFDKGSYIKIIPEENKIIGYTTRNSGGVPENFKNYFIIEFDKPFTYKATVENGNLQENVAEQTTDHAGAIIGFKTRKGEQVNARIASSFISFEQAAANMNELGKDNIEQLAQKGKDAWNQVLGKIEVEGGNLDQYRTFYSCLYRSLLFPRKFYELDANGQPIHYSPYNGQVLPGYMFTDTGFWDTFRCLFPLLNLMYPSVNKEMQEGLINTYLESGFFPEWASPGHRGCMVGNNSASILVDAYMKGVKVDDIKTLYEGLIHGTENVHPEVSSTGRLGYEYYNKLGYVPYDVKINENAARTLEYAYDDWCIYRLAKELKRPKKEISLFAKRAMNYKNLFDKESKLMRGRNEDGTFQSPFSPLKWGDAFTEGNSWHYTWSVFHDPQGLIDLMGGKEMFVTMMDSVFAVPPIFDDSYYGQVIHEIREMTVMNMGNYAHGNQPIQHMIYLYDYAGQPWKAQYWLRQVMDRMYTPGPDGYCGDEANGQTSAWYVFSALGFYPVCPGTDEYVMGTPLFKKATLHFENGNSLVIDAPNNSTENFYIDSMSFNGADHTKNYLRHEDLFKGGTIKVDMSNRPNLNRGTKEEDMPYSFSKE
With B1 the Km [1] was “Not Active”, the kcat [1] was “Not Active” and the Km [2] was 620 µM. For the same protein, the kcat [2] was 0.047 min⁻¹, the kcat/Km [3] was 0.001 mM⁻¹ min⁻¹ and the kcat/Km [4] was “Not Active”. For the same protein, the kcat/Km [5] was 0.076 mM⁻¹ min⁻¹.

B2: Alpha-1,2-mannosidase (BT_3990) (Bacteroides thetaiotaomicron), Q8A0N1 D644N (protein)
chain: MKRLLLIACILNCTLLSQAKDWTQYVNPLMGSQSTFELSTGNTYPAIARPWGMNFWTPQTGKMGDGWQYTYTANKIRGFKQTHQPSPWINDYGQFSIMPIVGQPVFDEEKRASWFAHKGEVATPYYYKVYLAEHDIVTEMTPTERAVLFRFTFPENDHSYVVVDAFDKGSYIKIIPEENKIIGYTTRNSGGVPENFKNYFIIEFDKPFTYKATVENGNLQENVAEQTTDHAGAIIGFKTRKGEQVNARIASSFISFEQAAANMNELGKDNIEQLAQKGKDAWNQVLGKIEVEGGNLDQYRTFYSCLYRSLLFPRKFYELDANGQPIHYSPYNGQVLPGYMFTDTGFWDTFRCLFPLLNLMYPSVNKEMQEGLINTYLESGFFPEWASPGHRGCMVGNNSASILVDAYMKGVKVDDIKTLYEGLIHGTENVHPEVSSTGRLGYEYYNKLGYVPYDVKINENAARTLEYAYDDWCIYRLAKELKRPKKEISLFAKRAMNYKNLFDKESKLMRGRNEDGTFQSPFSPLKWGDAFTEGNSWHYTWSVFHDPQGLIDLMGGKEMFVTMMDSVFAVPPIFDDSYYGQVIHEIREMTVMNMGNYAHGNQPIQHMIYLYDYAGQPWKAQYWLRQVMDRMYTPGPDGYCGDENNGQTSAWYVFSALGFYPVCPGTDEYVMGTPLFKKATLHFENGNSLVIDAPNNSTENFYIDSMSFNGADHTKNYLRHEDLFKGGTIKVDMSNRPNLNRGTKEEDMPYSFSKE
In the case of B2, the Km [6] is reported as “Not Active”, the kcat [6] is reported as “Not Active” and the Km [7] is reported as 720 µM. For the same protein, the kcat [7] was 0.023 min⁻¹, the kcat/Km [8] was 0.034 mM⁻¹ min⁻¹ and the kcat/Km [9] was “Not Active”. It also gave a kcat/Km [10] of 0.032 mM⁻¹ min⁻¹.

B3: Alpha-1,2-mannosidase (BT_3990) (Bacteroides thetaiotaomicron), Q8A0N1 E643A (protein)
chain: MKRLLLIACILNCTLLSQAKDWTQYVNPLMGSQSTFELSTGNTYPAIARPWGMNFWTPQTGKMGDGWQYTYTANKIRGFKQTHQPSPWINDYGQFSIMPIVGQPVFDEEKRASWFAHKGEVATPYYYKVYLAEHDIVTEMTPTERAVLFRFTFPENDHSYVVVDAFDKGSYIKIIPEENKIIGYTTRNSGGVPENFKNYFIIEFDKPFTYKATVENGNLQENVAEQTTDHAGAIIGFKTRKGEQVNARIASSFISFEQAAANMNELGKDNIEQLAQKGKDAWNQVLGKIEVEGGNLDQYRTFYSCLYRSLLFPRKFYELDANGQPIHYSPYNGQVLPGYMFTDTGFWDTFRCLFPLLNLMYPSVNKEMQEGLINTYLESGFFPEWASPGHRGCMVGNNSASILVDAYMKGVKVDDIKTLYEGLIHGTENVHPEVSSTGRLGYEYYNKLGYVPYDVKINENAARTLEYAYDDWCIYRLAKELKRPKKEISLFAKRAMNYKNLFDKESKLMRGRNEDGTFQSPFSPLKWGDAFTEGNSWHYTWSVFHDPQGLIDLMGGKEMFVTMMDSVFAVPPIFDDSYYGQVIHEIREMTVMNMGNYAHGNQPIQHMIYLYDYAGQPWKAQYWLRQVMDRMYTPGPDGYCGDADNGQTSAWYVFSALGFYPVCPGTDEYVMGTPLFKKATLHFENGNSLVIDAPNNSTENFYIDSMSFNGADHTKNYLRHEDLFKGGTIKVDMSNRPNLNRGTKEEDMPYSFSKE
B3 was tested, and the Km [11] was “Not Active”, the kcat [11] was “Not Active” and the Km [12] was “Not Active”. For the same protein, the kcat [12] was “Not Active”, the kcat/Km [13] was 0.015 mM⁻¹ min⁻¹ and the kcat/Km [14] was “Not Active”. It also gave a kcat/Km [15] of 0.79 mM⁻¹ min⁻¹.

Reference: ChEMBL document CHEMBL1250451, “Mechanistic insights into a Ca2+-dependent family of alpha-mannosidases in a human gut symbiont” (Nat Chem Biol, 2010)
